Source: the Immune Epitope Database (IEDB)

Target: HLA-A*02:01
Assay: IEDB peptide-MHC binding, purified MHC/competitive/radioactivity; filed as Kd, often an IC50 or EC50 that approximates it; ≥ and ≤ were set here for values at or beyond the usual limits of such assays
Conditions: source organism: Mycobacterium tuberculosis

With AIAWGAWGEV as the sequence, how does the Kd read?
Its Kd is 312 nM.

AIYHPQQFV was tested. Which Kd did it give?
Its Kd is 313 nM.

For ALLSDWLPA, which Kd is on record?
Its Kd is 94.3 nM.

ALVLLMLPVV was tested. Which Kd did it give?
Its Kd is 6.8 nM.

ALYLLDGLRA was tested. Which Kd did it give?
Its Kd is 263 nM.

Which Kd does the source give for AMALLRLPLV here?
Its Kd is 5.1 nM.

With AMKADIQHV as the sequence, how does the Kd read?
Its Kd is 167 nM.

AMLQDMAIL was tested. Which Kd did it give?
Its Kd is 98 nM.

ATYDKGILTV was tested. Which Kd did it give?
The Kd was 156 nM.

AVHDTLFYCV was tested. Which Kd did it give?
Its Kd is 104 nM.

FLLADERVRV was tested. Which Kd did it give?
Its Kd is 116 nM.

Which Kd does the source give for FLLPDAQSI here?
Its Kd is 385 nM.

With FLMPVEDVFI as the sequence, how does the Kd read?
Its Kd is 3.3 nM.

Which Kd does the source give for FLTCDANLAV here?
Its Kd is 104 nM.

With FMSLAGFVRM as the sequence, how does the Kd read?
Its Kd is 116 nM.

For FVVALIPLV, which Kd is on record?
The Kd was 7.6 nM.

GIVSGILLSI was tested. Which Kd did it give?
Its Kd is 152 nM.

For GLAGTVLRFV, which Kd is on record?
Its Kd is 109 nM.

For GLFLTTEAVV, which Kd is on record?
The Kd was 238 nM.

For GLGGLGLFFA, which Kd is on record?
Its Kd is 89.2 nM.

Which Kd does the source give for GLMTAVYLV here?
Its Kd is 8.9 nM.

For GLVDFVKHI, which Kd is on record?
Its Kd is 217 nM.

How did the Kd turn out when GLYGAQYDV was run?
Its Kd is 250 nM.

How did the Kd turn out when GLYRQWALA was run?
The Kd was 185 nM.

With GLYYLTTEV as the sequence, how does the Kd read?
The Kd was 20.8 nM.

Which Kd does the source give for ILLSIARVV here?
The Kd was 454 nM.

ILSSLGLPV was tested. Which Kd did it give?
The Kd was 50 nM.

For KIFMLVTAVV, which Kd is on record?
Its Kd is 417 nM.

With KLTADGVLTA as the sequence, how does the Kd read?
Its Kd is 200 nM.

How did the Kd turn out when LALVLLMLPV was run?
The Kd was 333 nM.

For LLAAGVADPV, which Kd is on record?
The Kd was 217 nM.

LLACAVIHA was tested. Which Kd did it give?
Its Kd is 250 nM.

For LLATVFKLTA, which Kd is on record?
The Kd was 250 nM.

Which Kd does the source give for LLCCSGVATA here?
The Kd was 152 nM.

For LLFLGVVFL, which Kd is on record?
The Kd was 50 nM.

How did the Kd turn out when LLFRFMRPL was run?
The Kd was 35.7 nM.

LLFRFMRPLI was tested. Which Kd did it give?
The Kd was 83.3 nM.

How did the Kd turn out when LLGSFELTGI was run?
Its Kd is 26 nM.

How did the Kd turn out when LLLDVTPLSL was run?
The Kd was 17 nM.

Which Kd does the source give for LLLETSWEAI here?
The Kd was 106 nM.

LLPLGYPFV was tested. Which Kd did it give?
Its Kd is 333 nM.

For LLWQDPVPA, which Kd is on record?
Its Kd is 45.4 nM.

How did the Kd turn out when LMIGTAAAVV was run?
Its Kd is 54 nM.

How did the Kd turn out when LMLPGMNGI was run?
The Kd was 238 nM.

How did the Kd turn out when MALLRLPLV was run?
The Kd was 52.6 nM.

Which Kd does the source give for MLASTLTDA here?
Its Kd is 250 nM.

With MLATDLSLRV as the sequence, how does the Kd read?
Its Kd is 109 nM.

For MLGNAPSVV, which Kd is on record?
The Kd was 227 nM.

With MLQDMAILT as the sequence, how does the Kd read?
The Kd was 167 nM.

For MTYAAPLFV, which Kd is on record?
The Kd was 13.8 nM.

RIANGMGATV was tested. Which Kd did it give?
Its Kd is 385 nM.

RLLDDTPEV was tested. Which Kd did it give?
Its Kd is 96.1 nM.

RLMIGTAAA was tested. Which Kd did it give?
The Kd was 227 nM.

Which Kd does the source give for RLQPQVGWEV here?
The Kd was 178 nM.

Which Kd does the source give for RMPAVTDLV here?
The Kd was 125 nM.

RMSRVTTFTV was tested. Which Kd did it give?
The Kd was 75.5 nM.

SLAGFVRML was tested. Which Kd did it give?
Its Kd is 111 nM.

How did the Kd turn out when SLLEIGEGV was run?
Its Kd is 98 nM.

For SLLEIGEGVV, which Kd is on record?
Its Kd is 50 nM.

SLYFGGICV was tested. Which Kd did it give?
The Kd was 10.6 nM.

For SLYFGGICVI, which Kd is on record?
Its Kd is 167 nM.

For TVLRFVPPL, which Kd is on record?
The Kd was 76.9 nM.

Which Kd does the source give for VLLEDGGVEV here?
The Kd was 333 nM.

With VLLLDVTPL as the sequence, how does the Kd read?
Its Kd is 50 nM.

For WLLIDTSNA, which Kd is on record?
Its Kd is 357 nM.

With WMAETTLGRV as the sequence, how does the Kd read?
Its Kd is 294 nM.

YLLALRYLA was tested. Which Kd did it give?
The Kd was 10 nM.

How did the Kd turn out when YLSEGDMAA was run?
The Kd was 294 nM.

YLSQIAVLL was tested. Which Kd did it give?
Its Kd is 12.1 nM.

How did the Kd turn out when YLYVHSPAL was run?
The Kd was 5.4 nM.

For YTYKWETFL, which Kd is on record?
The Kd was 29 nM.
